The target of assay [1] is T1, α7-nAChR (native, rat hippocampal CA1 interneurons) (Rattus norvegicus, UniProt Q05941).
T1 construct: gene Chrna7; native receptor in CA1 stratum radiatum interneurons of hippocampal slices
Put plainly: whole-cell patch clamp, hippocampal slices. To be noted: agonist; 1 mM choline pulses, 22°C, -60 mV, pH 7.4. (The patch-clamp technique gives a direct electrical read-out from membranes.)

Assay [2] has as its target LRP6 (Homo sapiens) (UniProt O75581). To be noted: cited from earlier work.
Assay [3] deals with human homomeric α7 nicotinic acetylcholine receptor expressed in X. laevis oocytes (human) (UniProt P36544).
human homomeric α7 nicotinic acetylcholine receptor expressed in X. laevis oocytes (human), sequence (P36544 23-502): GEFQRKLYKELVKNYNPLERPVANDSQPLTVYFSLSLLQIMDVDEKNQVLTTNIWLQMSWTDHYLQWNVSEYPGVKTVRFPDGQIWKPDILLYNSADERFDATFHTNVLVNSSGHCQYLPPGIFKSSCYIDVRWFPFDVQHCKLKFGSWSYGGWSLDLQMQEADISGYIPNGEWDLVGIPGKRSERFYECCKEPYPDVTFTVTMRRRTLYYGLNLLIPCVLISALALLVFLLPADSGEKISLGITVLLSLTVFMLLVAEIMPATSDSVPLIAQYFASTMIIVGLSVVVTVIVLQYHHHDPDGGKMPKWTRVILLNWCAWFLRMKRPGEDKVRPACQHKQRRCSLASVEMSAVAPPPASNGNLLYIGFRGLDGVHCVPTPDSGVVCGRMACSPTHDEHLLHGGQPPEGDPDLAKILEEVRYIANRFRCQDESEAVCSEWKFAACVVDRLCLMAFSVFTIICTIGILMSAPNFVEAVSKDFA
The target of assay [4] is human α3β4 nicotinic acetylcholine receptor expressed in X. laevis oocytes (human) (UniProt P32297).
human α3β4 nicotinic acetylcholine receptor expressed in X. laevis oocytes (human), sequence (P32297 32-505, chain 1 of 2): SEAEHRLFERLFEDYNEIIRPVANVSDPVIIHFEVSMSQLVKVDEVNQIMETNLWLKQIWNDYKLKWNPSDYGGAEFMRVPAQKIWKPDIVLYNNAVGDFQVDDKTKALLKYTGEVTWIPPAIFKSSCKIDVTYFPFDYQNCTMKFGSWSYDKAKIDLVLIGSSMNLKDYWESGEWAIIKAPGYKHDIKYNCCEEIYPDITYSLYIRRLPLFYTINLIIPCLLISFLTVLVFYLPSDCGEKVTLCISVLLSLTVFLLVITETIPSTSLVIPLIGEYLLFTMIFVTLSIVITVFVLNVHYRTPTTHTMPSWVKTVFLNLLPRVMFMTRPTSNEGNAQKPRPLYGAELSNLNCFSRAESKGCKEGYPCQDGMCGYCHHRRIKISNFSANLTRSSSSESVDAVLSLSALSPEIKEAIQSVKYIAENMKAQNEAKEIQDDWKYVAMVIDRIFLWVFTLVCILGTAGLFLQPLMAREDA
human α3β4 nicotinic acetylcholine receptor expressed in X. laevis oocytes (human), sequence (P30926 22-498, chain 2 of 2, further chain): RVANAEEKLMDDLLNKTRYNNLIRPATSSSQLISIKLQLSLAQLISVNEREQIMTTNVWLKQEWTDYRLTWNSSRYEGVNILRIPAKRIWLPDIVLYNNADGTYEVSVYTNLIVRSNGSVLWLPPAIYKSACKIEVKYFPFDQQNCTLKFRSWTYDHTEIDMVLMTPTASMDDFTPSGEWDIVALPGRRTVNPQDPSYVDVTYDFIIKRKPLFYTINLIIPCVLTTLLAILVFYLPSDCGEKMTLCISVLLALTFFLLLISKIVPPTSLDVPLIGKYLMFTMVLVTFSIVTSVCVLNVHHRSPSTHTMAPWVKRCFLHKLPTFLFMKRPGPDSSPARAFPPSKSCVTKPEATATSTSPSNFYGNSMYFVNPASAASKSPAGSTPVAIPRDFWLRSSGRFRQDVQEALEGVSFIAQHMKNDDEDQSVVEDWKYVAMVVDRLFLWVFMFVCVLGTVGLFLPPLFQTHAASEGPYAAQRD
Assay [5] concerns the target native α7 nicotinic acetylcholine receptor in interneurons of CA1 stratum radiatum, rat hippocampal slices (rat (endogenous in hippocampal slices)) (UniProt Q05941).
Assay [6] has as its target human homomeric α7 nicotinic acetylcholine receptor expressed in X. laevis oocytes (human) (UniProt P36544). This is another data set of the same source.

LRP6 (Homo sapiens), sequence (O75581 20-1370): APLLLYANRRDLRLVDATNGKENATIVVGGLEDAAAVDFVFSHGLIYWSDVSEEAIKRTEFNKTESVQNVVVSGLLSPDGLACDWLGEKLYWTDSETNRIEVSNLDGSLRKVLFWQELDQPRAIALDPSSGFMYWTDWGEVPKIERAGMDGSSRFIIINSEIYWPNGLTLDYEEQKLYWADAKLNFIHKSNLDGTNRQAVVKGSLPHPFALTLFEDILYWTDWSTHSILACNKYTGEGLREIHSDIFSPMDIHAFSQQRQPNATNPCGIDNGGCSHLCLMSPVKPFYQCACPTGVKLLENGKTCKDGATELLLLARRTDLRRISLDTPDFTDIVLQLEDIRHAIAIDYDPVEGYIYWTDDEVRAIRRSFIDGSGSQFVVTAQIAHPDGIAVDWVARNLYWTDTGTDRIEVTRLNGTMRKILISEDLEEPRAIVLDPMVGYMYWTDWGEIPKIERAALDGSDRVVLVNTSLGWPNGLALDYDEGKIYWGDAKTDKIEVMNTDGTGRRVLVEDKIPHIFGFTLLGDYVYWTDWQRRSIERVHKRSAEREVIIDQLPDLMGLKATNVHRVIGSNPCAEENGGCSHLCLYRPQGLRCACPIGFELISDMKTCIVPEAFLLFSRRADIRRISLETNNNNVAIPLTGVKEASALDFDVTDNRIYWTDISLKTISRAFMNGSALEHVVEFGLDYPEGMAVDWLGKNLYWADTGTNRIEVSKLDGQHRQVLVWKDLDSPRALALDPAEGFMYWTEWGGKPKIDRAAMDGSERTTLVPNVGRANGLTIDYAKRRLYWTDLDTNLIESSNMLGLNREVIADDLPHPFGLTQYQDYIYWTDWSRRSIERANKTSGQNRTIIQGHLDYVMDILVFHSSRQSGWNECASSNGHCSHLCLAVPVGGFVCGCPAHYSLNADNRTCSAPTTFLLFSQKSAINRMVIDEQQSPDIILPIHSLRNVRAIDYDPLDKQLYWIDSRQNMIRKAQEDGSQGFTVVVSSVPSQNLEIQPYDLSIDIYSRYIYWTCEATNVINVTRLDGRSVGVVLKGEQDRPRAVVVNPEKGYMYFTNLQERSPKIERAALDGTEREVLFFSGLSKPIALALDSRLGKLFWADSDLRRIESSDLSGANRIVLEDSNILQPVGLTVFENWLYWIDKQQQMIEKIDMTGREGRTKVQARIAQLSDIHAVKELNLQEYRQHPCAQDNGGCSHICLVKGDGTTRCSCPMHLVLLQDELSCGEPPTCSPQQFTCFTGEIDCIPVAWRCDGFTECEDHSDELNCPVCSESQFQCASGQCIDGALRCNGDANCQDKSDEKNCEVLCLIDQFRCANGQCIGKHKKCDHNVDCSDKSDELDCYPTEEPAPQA
native α7 nicotinic acetylcholine receptor in interneurons of CA1 stratum radiatum, rat hippocampal slices (rat (endogenous in hippocampal slices)), sequence (Q05941 23-502): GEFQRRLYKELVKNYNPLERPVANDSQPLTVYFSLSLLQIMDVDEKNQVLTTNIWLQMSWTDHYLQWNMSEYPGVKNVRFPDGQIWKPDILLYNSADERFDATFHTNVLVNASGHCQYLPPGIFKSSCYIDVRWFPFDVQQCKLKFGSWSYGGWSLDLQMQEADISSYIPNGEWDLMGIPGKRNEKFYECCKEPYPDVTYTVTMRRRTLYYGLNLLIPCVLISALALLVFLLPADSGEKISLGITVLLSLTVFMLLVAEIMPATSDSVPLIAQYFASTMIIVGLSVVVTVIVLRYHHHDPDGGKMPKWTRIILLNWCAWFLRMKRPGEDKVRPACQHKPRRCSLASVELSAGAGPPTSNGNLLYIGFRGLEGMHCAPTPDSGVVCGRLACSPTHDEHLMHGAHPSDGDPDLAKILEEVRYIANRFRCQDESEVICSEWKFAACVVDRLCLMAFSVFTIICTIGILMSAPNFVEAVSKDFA
T1 sequence (Q05941 23-502): as above

Consider `C[N+](C)(C)CCO` [Choline], for which, in assay [1], the “whole-cell patch clamp, hippocampal slices” value was “Application of choline induced the robust currents in the interneurons of CA1 str. radiatum”.
On to Lypd6 (from UniProt Q86Y78), for which, in assay [2], the Kd (commonly the constant that tells how readily two partners part at equilibrium) is 1 µM.
“recombinant water-soluble variant of human Lypd6 containing the isolated three-finger LU-domain (ws-Lypd6) (domain or fragment)” displayed an IC50 of inhibition of ACh-evoked currents (100 μM ACh, 15 s pre-incubation), two-electrode voltage clamp, X. laevis oocytes in assay [3] of 10.9 µM. In assay [4], this molecule came in with an IC50 of inhibition of ACh-evoked currents (100 μM ACh, 5 min pre-incubation), two-electrode voltage clamp, X. laevis oocytes of 34.9 µM. The molecule further yielded an amplitude of choline-evoked currents (1 mM choline) with 1 μM ws-Lypd6, whole-cell patch clamp in rat hippocampal slices with 8 μM DhβE; reversed by washout (% of the control value) in assay [5] of 72.

B1: isolated water-soluble LU-domain of Lypd6b (ws-Lypd6b) (domain or fragment)
chain: FKCFTCENAGDNYNCNRWAEDKWCPQNTQYCLTVHHFTSHGRSTSITKKCASRSECHFVGCHHSRDSEHTECRSCCEGMICNVELPTNHTNAVFA
In turn, B1 showed a reduction of the ACh-evoked current amplitude by 30 μM ws-Lypd6b (100 μM ACh), two-electrode voltage clamp, X. laevis oocytes in assay [6] of 20%.

These data come from publication PMC8494132, “Human Three-Finger Protein Lypd6 Is a Negative Modulator of the Cholinergic System in the Brain” (Frontiers in Cell and Developmental Biology, 2021).
